The values below are quoted from earlier work in article PMC3292877.

The data set has as its target ERK2 (Rattus norvegicus) (UniProt P63086).

What is called Kd is the equilibrium constant for the complex coming apart. For ERK2 (from UniProt P63086), the Kd was 7 nM.
